Source: patent US8518892B2, “Methods to treat symptoms of pathophysiology related to body mass” (Board of Supervisors of Louisiana State University and …, priority 2005, dated 2013)

How the values were obtained:
obese (ob/ob) mice = assay: Enho 1 ip for 8 days in obese (ob/ob) mice, serum lipids (Example 22); format: in vivo, mouse
Method: The effect of Enho-1 upon liver serum lipid content was tested over the course of 8 days using obese (ob/ob) mice. The mice were fed Research Diets 12450 and were approximately 9-10 weeks of age at the start of the experiment. Control mice received vehicle only while test mice each received doses of either 90 nmol/kg/d, 900 nmol/kg/d or 9000 nmol/kg/d. The injections were given as 3 ip injections at 0800, 1200 and 1600 h for 7 days. On day 8, the mice were given the 0800 h injection and were sacrificed 1-3 h later, at which time blood samples were taken.
Blood glucose levels were measured using an Accu-Chek glucometer. Insulin levels were measured by ELISA (Mercodia Mouse Insulin ELISA, ALPCO) while triglycerides were measured using a Triglyceride L-Type TG H kit (Wako Diagnostics).

[1] = tested on: diet induced obese (DIO) C57BL/6J mice; assay: Enho 1 ip for 3 days in diet induced obese C57BL/6J mice (Examples 19-21); format: in vivo, mouse
Method: (§1) The effect of Enho-1 upon weight loss was tested over the course of 3 days using diet induced obese (DIO) C57BL/6J mice (Jackson Laboratories, Bar Harbor, Me.). The mice were fed Research Diets 12492 (60% kJ/fat) for 12 weeks, resulting in obesity and moderate hyperglycemia in the animals. The mice were approximately 20-22 weeks of age and 30-50 g in weight at the start of the experiment. Fasting blood glucose was determined to be approximately 170-220 mg/dL. Six control mice received vehicle only while six test mice each received doses of either 90 nmol/kg/d, 900 nmol/kg/d or 9000 nmol/kg/d. The injections were given as 3 ip injections at 0600, 1400 and 2000 h on days 1 and 2; over the 3 day period, the mice received a total of 7 injections. All animals were euthanized 5 hours after the last injection given the morning of the third day. Food was removed after the final injection.
as §1, with “insulin and glucose” for “weight loss”
The HOMA-IR for each treatment was calculated using the following formula: ((glucose mg/dL÷18)×(insulin ng/ml×25.05))÷22.5
as §1, with “liver weight, liver lipid content and liver TG” for “weight loss”

[2] = 90 nmol/kg/d ip, listed as Enho-1
[3] = 900 nmol/kg/d ip, listed as Enho-1
[4] = 9000 nmol/kg/d ip, listed as Enho-1

B1: Enho 1: human Enho 1, a 76 amino acid peptide having the sequence SEQ ID NO: 14 (peptide, listed as Homo sapiens)
chain: MGAAISQGALIAIVCNGLVGFLLLLLWVILCWACHSRSADVDSLSESSPNSSPGPCPEKAPPPQKPSHEGSYLLQP
TG (blood triglyceride level) (obese (ob/ob) mice; 90 nmol/kg/d ip): 19.4 mg/dL
TG decrease in comparison with the control (obese (ob/ob) mice; 90 nmol/kg/d ip): 34%
TG (blood triglyceride level) (obese (ob/ob) mice; [2]): 19.4 ± 2.2 mg/dL
TG decrease in comparison with the control (obese (ob/ob) mice; [2]): (↓ 34%)
TG (blood triglyceride level) (obese (ob/ob) mice; 900 nmol/kg/d ip): 18.4 mg/dL
TG decrease in comparison with the control (obese (ob/ob) mice; 900 nmol/kg/d ip): 38%
TG (blood triglyceride level) (obese (ob/ob) mice; [3]): 18.4 ± 2.3 mg/dL
TG decrease in comparison with the control (obese (ob/ob) mice; [3]): (↓ 38%)
TG (blood triglyceride level) (obese (ob/ob) mice; 9000 nmol/kg/d ip): 22.0 mg/dL
TG decrease in comparison with the control (obese (ob/ob) mice; 9000 nmol/kg/d ip): 26%
TG (blood triglyceride level) (obese (ob/ob) mice; [4]): 22.0 ± 2.2 mg/dL
TG decrease in comparison with the control (obese (ob/ob) mice; [4]): (↓ 26%)
Blood glucose ([1]; 90 nmol/kg/d ip): 204 mg/dL
Delta body weight ([1]; 90 nmol/kg/d ip): 2.9%
HOMA-IR ([1]; 90 nmol/kg/d ip): 50
HOMA-IR decrease as compared to the control group ([1]; 90 nmol/kg/d ip): 15%
Insulin ([1]; 90 nmol/kg/d ip): 3.8 ng/mL
Liver TG ([1]; 90 nmol/kg/d ip): 57 mg/g
Liver TG total ([1]; 90 nmol/kg/d ip): 86 mg/g
Liver lipid ([1]; 90 nmol/kg/d ip): 126 mg/g
Liver lipid total ([1]; 90 nmol/kg/d ip): 188 mg/g
Liver weight ([1]; 90 nmol/kg/d ip): 1.5 grams
Liver weight % body weight ([1]; 90 nmol/kg/d ip): 3.6%
Weight (pre-treatment) ([1]; 90 nmol/kg/d ip): 42.9 g
Weight (termination) ([1]; 90 nmol/kg/d ip): 41.7 g
Blood glucose [1, 2]: 204 ± 7 mg/dL
HOMA-IR [1, 2]: 50 ± 5
HOMA-IR decrease as compared to the control group [1, 2]: (↓ 15%)
Insulin [1, 2]: 3.8 ± 0.4 ng/mL
Liver TG [1, 2]: 57 ± 8 mg/g
Liver TG total [1, 2]: 86 ± 14 mg/g
Liver lipid [1, 2]: 126 ± 8 mg/g
Liver lipid total [1, 2]: 188 ± 13 mg/g
Liver weight [1, 2]: 1.5 ± 0.0 grams
Liver weight % body weight [1, 2]: 3.6 ± 0.1%
Weight (pre-treatment) [1, 2]: 42.9 ± 1.2 g
Weight (termination) [1, 2]: 41.7 ± 0.9 g
Delta body weight ([1]; 900 nmol/kg/d ip): 3.5%
HOMA-IR ([1]; 900 nmol/kg/d ip): 42
Insulin ([1]; 900 nmol/kg/d ip): 4.2 ng/mL
Liver TG ([1]; 900 nmol/kg/d ip): 48 mg/g
Liver TG total ([1]; 900 nmol/kg/d ip): 66 mg/g
Liver lipid ([1]; 900 nmol/kg/d ip): 137 mg/g
Liver lipid total ([1]; 900 nmol/kg/d ip): 226 mg/g
Liver weight ([1]; 900 nmol/kg/d ip): 1.5 grams
Liver weight % body weight ([1]; 900 nmol/kg/d ip): 3.5%
Weight (pre-treatment) ([1]; 900 nmol/kg/d ip): 42.8 g
Weight (termination) ([1]; 900 nmol/kg/d ip): 41.3 g
blood glucose levels decrease ([1]; 900 nmol/kg/d ip): approximately 15%
insulin levels reduction ([1]; 900 nmol/kg/d ip): about 14%
Blood glucose ([1]; 900 nmol/kg/d ip, P < 0.05 vs 90): 166 mg/dL
Blood glucose ([1]; 900 nmol/kg/d ip, P < 0.05 vs 90, listed as Enho-1): 166 ± 13 mg/dL
HOMA-IR [1, 3]: 42 ± 3
Insulin [1, 3]: 4.2 ± 0.5 ng/mL
Liver TG [1, 3]: 48 ± 12 mg/g
Liver TG total [1, 3]: 66 ± 14 mg/g
Liver lipid [1, 3]: 137 ± 34 mg/g
Liver lipid total [1, 3]: 226 ± 77 mg/g
Liver weight [1, 3]: 1.5 ± 0.2 grams
Liver weight % body weight [1, 3]: 3.5 ± 0.2%
Weight (pre-treatment) [1, 3]: 42.8 ± 2.9 g
Weight (termination) [1, 3]: 41.3 ± 2.7 g
HOMA-IR decrease as compared to the control group ([1]; 900 nmol/kg/d ip, p<0.02): 29%
HOMA-IR decrease as compared to the control group ([1]; 900 nmol/kg/d ip, p<0.02, listed as Enho-1): (↓ 29%)
Blood glucose ([1]; 9000 nmol/kg/d ip): 198 mg/dL
Delta body weight ([1]; 9000 nmol/kg/d ip): 4.1%
HOMA-IR ([1]; 9000 nmol/kg/d ip): 52
HOMA-IR decrease as compared to the control group ([1]; 9000 nmol/kg/d ip): 12%
Insulin ([1]; 9000 nmol/kg/d ip): 4.2 ng/mL
Liver TG ([1]; 9000 nmol/kg/d ip): 47 mg/g
Liver TG total ([1]; 9000 nmol/kg/d ip): 63 mg/g
Liver lipid ([1]; 9000 nmol/kg/d ip): 139 mg/g
Liver lipid total ([1]; 9000 nmol/kg/d ip): 230 mg/g
Liver weight ([1]; 9000 nmol/kg/d ip): 1.4 grams
Liver weight % body weight ([1]; 9000 nmol/kg/d ip): 3.4%
Weight (pre-treatment) ([1]; 9000 nmol/kg/d ip): 42.7 g
Weight (termination) ([1]; 9000 nmol/kg/d ip): 40.9 g
liver TG reduction as compared to the control group ([1]; 9000 nmol/kg/d ip): 18-19%
Blood glucose [1, 4]: 198 ± 9 mg/dL
HOMA-IR [1, 4]: 52 ± 4
HOMA-IR decrease as compared to the control group [1, 4]: (↓ 12%)
Insulin [1, 4]: 4.2 ± 0.3 ng/mL
Liver TG [1, 4]: 47 ± 9 mg/g
Liver TG total [1, 4]: 63 ± 10 mg/g
Liver lipid [1, 4]: 139 ± 42 mg/g
Liver lipid total [1, 4]: 230 ± 96 mg/g
Liver weight [1, 4]: 1.4 ± 0.2 grams
Liver weight % body weight [1, 4]: 3.4 ± 0.3%
Weight (pre-treatment) [1, 4]: 42.7 ± 1.6 g
Weight (termination) [1, 4]: 40.9 ± 1.6 g
serum TG reduction as compared to the control group ([1]; 9000 nmol/kg/d ip, p<0.05, 1-tailed t-test): 20%
